Reference: patent US20180265560A1 (CASE WESTERN RESERVE UNIVERSITY, published 2018)
Bridges are numbered along the chain shown (N, C = ends). Where no end group is shown, it is not given here.

How the values were obtained:
Type 1 IGF-I receptor = target: T1, Type 1 IGF-I receptor (UniProt P08069 31-1367, limits assumed); assay: competitive receptor-binding assay, against wild-type human insulin as reference
T1 construct: also called IGF-1R; Type 1 insulin-like growth factor receptor

[1] = target: T2, A isoform of the insulin receptor (UniProt P06213-2 28-1370, limits assumed); assay: competitive displacement of radiolabelled tracer, receptor on microtiter plates coated with AU5 IgG
T2 construct: isoform A lacks exon 11; also called IR-A
Experimental: The assay employed the A isoform of the insulin receptor. […] The protocol for assay of receptor-binding activities was as follows. Microtiter strip plates (Nunc Maxisorb) were incubated overnight at 4° C. with AU5 IgG (100 μl/well of 40 mg/ml in phosphate-buffered saline). Binding data were analyzed by a two-site sequential model.

Binder | fold lower affinity than wild-type human insulin (Type 1 IGF-I receptor) [fold] | Kd [1] [nM]
SCI-57DP (ligand, disulfide 19-56, 42-47, 7-43, Made in Pichia pastoris; the cleaved product has 57 residues with native disulfide bridges; also called SCI-2; Thermalin-biphasic) FVNQHLCGSHLVEALYLVCGERGFFYTDPTEEGPRRGIVEQCCHSICSLEQLENYCN | 5 | 0.06
SCI-57PE (ligand, disulfide 19-56, 42-47, 7-43, Made in Pichia pastoris; the cleaved product has 57 residues with native disulfide bridges; also called SCI-1; Thermalin-biphasic) FVNQHLCGSHLVEALYLVCGERGFFYTPETEEGPRRGIVEQCCHSICSLEQLENYCN |  | 0.08
